Assay: label from the status in PepcDB records

Sequence | protein production
MPVEITVKELLEAGVHFGHERKRWNPKFARYIYAERNGIHIIDLQKTMEELERTFRFIEDLAMRGGTILFVGTKKQAQDIVRMEAERAGMPYVNQRWLGGMLTNFKTISQRVHRLEELEALFASPEIEERPKKEQVRLKHELERLQKYLSGFRLLKRLPDAIFVVDPTKEAIAVREARKLFIPVIALADTDSDPDLVDYIIPGNDDAIRSIQLILSRAVDLIIQARGGVVEPSPSYALVQEAEATETPEGESEVEA | not failed
MRWITRPGWPGNLLALAAGGLTTLALAPFDFWPLVLVSVAMFYLGLRELSPRQALARGWCYGFGLYGAGTSWIYVSIHTYGGASALLAGLLMLLFIAAIALFFALPAWVWARWLRRNEAPLADSLAFAALWLWQEAFRGWFLTGFPWLYSGYSQLDAPLAGLAPVGGVWLISFALGLTAALLCNLHRLRARKSFLAMGVLLLLAPWVAGLALKDHAWTSPSGPPLKVAAMQGNIEQSMKWDPQKLNDQLALYRDMTFRSQQADLIVWPETAVPVLKESAEGYLSMMGKFAADRGAALITGVPVREPTGRGEYSYYNGITVTGQGDGTYFKQKLVPFGEYVPLQDLLRGLISFFDLPMSDFARGPNDQALLQAKGYHIAPFICYEVVYPEFAAGLSAQSDLLLTVSNDTWFGTSIGPLQHLQMAQMRALEAGRWMIRATNNGVTALIDPFGRITVQIPQFERGVLYGEVVPMHELTPYLHWRSWPLAIVCLLLFGWALLAARISKTV | failed
MPIPQATADAFCALTGDDQWIHIDPARAEAEGLAGGDTVLPGALLLSLAVGGLGKALGYPEGTRSWQRSYERVRFLRPAPVGSRLRLEARESRRRPAGTGREVVVANVSLYSDLVEAGPVMEGCFTSLLEVAVQPLEHHHHHH | failed
MSLRDTQTQLRNEMIYSVFVRNYSEAGNFAGVTADLQRIKDLGTDILWLLPINPIGEVNRKGTLGSPYAIKDYRGINPEYGTLADFKALTDRAHELGMKVMLDIVYNHTSPDSVLATEHPEWFYHDADGQLTNKVGDWSDVKDLDYGHHELWQYQIDTLLYWSQFVDGYRCDVAPLVPLDFWLEARKQVNAKYPETLWLAESAGSGFIEELRSQGYTGLSDSELYQAFDMTYDYDVFGDFKDYWQGRSTVERYVDLLQRQDATFPGNYVKMRFLENHDNARMMSLMHSKAEAVNNLTWIFMQRGIPLIYNGQEFLAEHQPSLFDRDTMVADRHGDVTPLIQKLVTIKQLPLLRAADYQLAVVEEGIVKITYRAAGEALTAWIPLKGQVTAVATKLAAGSYQNLLTDGPTEVVDGKLTVDGQPVLIKYVTNTAVTKVADQSNEGHHHHHH | not failed
MEKSNVFLLSILLMASLFSISHAFQLWGYAIDRVSIRGVVYCSLDGDPSAPPVSNATVYIECPGGSNSTLAQAVTNQVGVFTLPWLMFIANYAIGASRQ | failed
GSAQEEQSANEVAVSYSKSLKAAEMDSLQLPVDADGYITIFDGKTFNGWRGYGKDRVPSKWTIEDGCIKFNGSGGGEAQDGDGGDLIFAHKFKNFELEMEWKVSKGGNSGIFYLAQEVTSKDKDGNDVLEPIYISAPEYQVLDNDNHPDAKLGKDNNRQSASLYDMIPAVPQNAKPFGEWNKAKIMVYKGTVVHGQNDENVLEYHLWTKQWTDLLQASKFSQDKWPLAFELLNNCGGENHEGFIGMQDHGDDVWFRNIRVKVLD | not failed
MGATVPQRKALVLKASRILLSEKPLPERLQAFLEALLEGPFPIRSGKLYLRKGEGLRLVAQLGGEAGGEEVALSLEGGGRALGRLSLRLAPAASLAPEDRLALEEAAGILALALLRERAERAERVLRRAGECATQAAGEGDLLHKVCALLVEEGYALAWVGEARPTGEVVPREAAGAVGYLEGIRVRWDEAPEGQGPTGRALRSGRPQVLRSVEEDPRYAPWRERAQVFGFASSAAFPLRVEGRVWGSLNVYAPEEDAFDEEEVRLLEDLARLIGHALDRLRALERLRFLAYHDPLTGLPNRRRLEEDFRLLRGRWALCRLDLVDLYEVNEAYGREAGDALLARTSRRLQALLPREGRLYRLEGGEFLALLPGGAKEAEAFGQALGEALEAPLDLGEGRAFRVRVRAGVALFPDDANTLSELLRRADQALREAKKAGKRWTFYSLGLGEAVRERREVLAGLEKALAEGELRLYGQPIVDLATGRPAGVEVLLRWARGEEVVPASRFIPVAEEAGLIPELDLYVLRALAQMTTALPLHVNLSPQTLLDERLLLGLAPLKGRNLRLELTEHALASPGAEARLKELSCMGFPVVLDDFGQGYASLRLLVGLPFSMAKVDRGFVGGIGLDPKAEAALKAVLALSRELEIALVAEGVEREDQWAWLRSVGYSLGQGYLWGRPAPLEEVLYP | failed
